Fewer inactive variants are shown than the library holds.
Tested on: biotinyl-Phe-oxazolone
Assay: self-aminoacylation, catalytic enhancement (BFO) (fold over background); higher = more active; k-Seq, kA / k0A0; sequences stand for … in GGGAAUGGAUCCACAUCUACGAAUUC…UUCACUGCAGACUUGACGAAGCUG
How it was run: (§1)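 Each biotinyl-aminoacyl-oxazolone, at 2–1250 μM, was incubated with mutagenized RNA pools (0.43 μM) carrying a 21-nt variable region. The 50 μL reactions contained HEPES/NaCl/KCl/MgCl2/CaCl2 buffer with 5% acetonitrile at pH 6.9–7.0 and ran for 90 minutes at room temperature. After streptavidin capture, RNA was measured by qPCR in triplicate and by Illumina sequencing, and catalytic enhancement was calculated as median kA over the uncatalyzed rate from a pseudo-first-order fit of per-sequence fraction reacted.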

Sequence	self-aminoacylation
AAGGUUACUAAUAGUCGCAAG [Fam3.1 aminoacylation ribozyme variant]	2.19
AAGUUUUCUAGUAGUCGCAAG [Fam3.1 aminoacylation ribozyme variant]	2.53
CUACUUCAAACAAUCGGUCAC [Fam1A.1 aminoacylation ribozyme variant]	23.1
AUUGACCUAGGUCAUCGGGUC [Fam2.2 aminoacylation ribozyme variant]	3.83
AAAUUUGCUAAUAGUCUCAAG [Fam3.1 aminoacylation ribozyme variant]	2.03
CUAGUUCAAACAAUCGGUUUG [Fam1A.1 aminoacylation ribozyme variant]	4.59
CUCCCUCAAACAAUCGGUCUG [Fam1A.1 aminoacylation ribozyme variant]	3.26
GUACAUCAAACAAUCGGUCUG [Fam1A.1 aminoacylation ribozyme variant]	2
AAGUCUGCUAAUAGUCGCAAU [Fam3.1 aminoacylation ribozyme variant]	6.06
UCGUUUGCUAAUAGUCGCAAG [Fam3.1 aminoacylation ribozyme variant]	4.06
AAGUUUGCUAAUAAUCGUAAG [Fam3.1 aminoacylation ribozyme variant]	3.54
AAGUUAGCUAAUAGUCGCAAU [Fam3.1 aminoacylation ribozyme variant]	2.2
GAGUUUGUUAAUAGUCGCAAG [Fam3.1 aminoacylation ribozyme variant]	2.36
CUACUGCAAACAAUCGGUCCG [Fam1A.1 aminoacylation ribozyme variant]	6.96
AUAACCCUGGUCGUCGAGUGA [Fam2.1 aminoacylation ribozyme variant]	2.78
CUCCUUCAAACACUCGGUCUG [Fam1A.1 aminoacylation ribozyme variant]	6.18
CUACUGCAAACAAUCGGUGUG [Fam1A.1 aminoacylation ribozyme variant]	3.44
CUACUUCAAACAAUCGGCCUU [Fam1A.1 aminoacylation ribozyme variant]	2.48
AAGUUCGCUAAUAGUCGAAAG [Fam3.1 aminoacylation ribozyme variant]	4.18
AAAUUUGCUAAUAGUCGAAAG [Fam3.1 aminoacylation ribozyme variant]	4.94
AAGGUUGCUAAUAGUCGCCAG [Fam3.1 aminoacylation ribozyme variant]	2.54
CCACACUUCAAGCAAUCGAUC [Fam1B.1 aminoacylation ribozyme variant]	2.02
AUACUUCAAACAAUCUGUCUG [Fam1A.1 aminoacylation ribozyme variant]	2.2

Sequence	self-aminoacylation
GUACCUCAAACAAUCGGUCUG [Fam1A.1 aminoacylation ribozyme variant]	2.42
CCACACAUCAAUCAAUCGGUC [Fam1B.1 aminoacylation ribozyme variant]	2.22
AAGUUUACGAAUAGUCGCAAG [Fam3.1 aminoacylation ribozyme variant]	2.82
AAGGUAGCUAAUAGUCGCAAG [Fam3.1 aminoacylation ribozyme variant]	3.35
AAGAUUGCUAAUAGUCACAAG [Fam3.1 aminoacylation ribozyme variant]	2.63
AAGUUUGCUAAUAGUCGCAAA [Fam3.1 aminoacylation ribozyme variant]	2.2
AUUCUCCUAGGUCAUCGUGUG [Fam2.2 aminoacylation ribozyme variant]	3.73
AAGUUAGCUAAUAGUCACAAG [Fam3.1 aminoacylation ribozyme variant]	3.83
CUAUUUCAACCAAUCGGUCUG [Fam1A.1 aminoacylation ribozyme variant]	2.27
AAGUAUACUAAUAGUCGCAAG [Fam3.1 aminoacylation ribozyme variant]	2.34
AUUCGCCUAGGUCAUCGGUUG [Fam2.2 aminoacylation ribozyme variant]	4.32
AAUUUUGCUAAUAGUCACAAG [Fam3.1 aminoacylation ribozyme variant]	3.77
CUCCAUCAAACAAUCGGUCUG [Fam1A.1 aminoacylation ribozyme variant]	2.14
CUACUUCAAACAAUCGCUCUG [Fam1A.1 aminoacylation ribozyme variant]	2.58
AAGUUUGUUAAAAGUCGCAAG [Fam3.1 aminoacylation ribozyme variant]	2.4
CUACUCCAAACAAUCGGUUUG [Fam1A.1 aminoacylation ribozyme variant]	2.1
AAGUUGGCUAAUAGUCGCCAG [Fam3.1 aminoacylation ribozyme variant]	2.1
AUCUUUGCUAAUAGUCGCAAG [Fam3.1 aminoacylation ribozyme variant]	2.44
AAGUUGGCUAAUAGUCGCUAG [Fam3.1 aminoacylation ribozyme variant]	2.22
AUGUUUGCUCAUAGUCGCAAG [Fam3.1 aminoacylation ribozyme variant]	2.41
AUUCACCUAGGUAAUCGAGUG [Fam2.2 aminoacylation ribozyme variant]	2.87
CAACUUCACACAAUCGGUCUG [Fam1A.1 aminoacylation ribozyme variant]	3.02
AUGUUUGCUACUAGUCGCAAG [Fam3.1 aminoacylation ribozyme variant]	2.12

Sequence	self-aminoacylation
GAGUUUGCUAAUAGUCGCACG [Fam3.1 aminoacylation ribozyme variant]	3
CUACUUCAAACAAUCGGCCCG [Fam1A.1 aminoacylation ribozyme variant]	3.03
AUGUUUGCUAAUAGUCGCAAU [Fam3.1 aminoacylation ribozyme variant]	2.83
AAGUUUUCUAAUAGUCUCAAG [Fam3.1 aminoacylation ribozyme variant]	2.15
GAGUUUGCUAAUAGCCGCAAG [Fam3.1 aminoacylation ribozyme variant]	4.21
AAGUUAGCUAAUAGUCGCACG [Fam3.1 aminoacylation ribozyme variant]	2.06
CUACUGCAAACAAGCGGUCUG [Fam1A.1 aminoacylation ribozyme variant]	5.58
AUACUUCAAACAAUCGGUCUA [Fam1A.1 aminoacylation ribozyme variant]	3.14
AUUACCCUGGUCAGCGAGUGC [Fam2.1 aminoacylation ribozyme variant]	8.87
AUUCACCUAGGUCACCUGGUG [Fam2.2 aminoacylation ribozyme variant]	8.5
AAGUUUACUAAUAGUUGCAAG [Fam3.1 aminoacylation ribozyme variant]	2.19
AUUCACCUAGGUCUUCGUGUG [Fam2.2 aminoacylation ribozyme variant]	5.39
AAGUUUGCUAAUUGUCGCAAU [Fam3.1 aminoacylation ribozyme variant]	6.81
AAGUUUGCGGAUAGUCGCAAG [Fam3.1 aminoacylation ribozyme variant]	2.73
CGACUUCAAACAAUCGAUCUG [Fam1A.1 aminoacylation ribozyme variant]	3.21
AAGUUUGCUAAUAGUCGCCUG [Fam3.1 aminoacylation ribozyme variant]	7.8
CGACUGCAAACAAUCGGUCUG [Fam1A.1 aminoacylation ribozyme variant]	6.2
GAGUUUGCUAAUCGUCGCAAG [Fam3.1 aminoacylation ribozyme variant]	2.55
AAGGUUGCUUAUAGUCGCAAG [Fam3.1 aminoacylation ribozyme variant]	2.7
CCACUGCAAACAAUCGGUCUG [Fam1A.1 aminoacylation ribozyme variant]	4.13
AUUCACCUACGUCAUCGGGUU [Fam2.2 aminoacylation ribozyme variant]	2.52
AUUCACCUAGGUCGUCGGGUC [Fam2.2 aminoacylation ribozyme variant]	5.09

Tested on: biotinyl-Trp-oxazolone
Assay: self-aminoacylation, catalytic enhancement (BWO) (fold over background); higher = more active; k-Seq, kA / k0A0; sequences stand for … in GGGAAUGGAUCCACAUCUACGAAUUC…UUCACUGCAGACUUGACGAAGCUG
How it was run: as §1

Sequence	self-aminoacylation
CUACUUCAAACAAUCGGUCAC [Fam1A.1 aminoacylation ribozyme variant]	8.51
CUAGUUCAAACAAUCGGUUUG [Fam1A.1 aminoacylation ribozyme variant]	3.41
CUCCCUCAAACAAUCGGUCUG [Fam1A.1 aminoacylation ribozyme variant]	3.48
GUUCACCUAGGUCAUCGGGAG [Fam2.2 aminoacylation ribozyme variant]	2.13
AAGAUUGAUAAUAGUCGCAAG [Fam3.1 aminoacylation ribozyme variant]	2.33
CCGCACUUCAAGCAAUCGGUA [Fam1B.1 aminoacylation ribozyme variant]	2.16
AUUACCGUGGUCAUCGAGCGA [Fam2.1 aminoacylation ribozyme variant]	2.2
AUUACCCUGGUCAUGGAGUGG [Fam2.1 aminoacylation ribozyme variant]	2.54
AUGACCCUGGUCAUCGAGUCA [Fam2.1 aminoacylation ribozyme variant]	2.12
AUUACCCUGGUCAUCCAGUAA [Fam2.1 aminoacylation ribozyme variant]	2.35
CUUCACCUAGGUCAUCGGGAG [Fam2.2 aminoacylation ribozyme variant]	2.1

From the supplement of paper PMC9233669
